Reference: PMC6411835

How the values were obtained:
Zip2(499-704);Spo16 [1] = target: T1, Zip2(499-704);Spo16 (Saccharomyces cerevisiae;Saccharomyces …, UniProt P53061;P17122 499-704;1-198, |); assay: EMSA
T1 sequence 1: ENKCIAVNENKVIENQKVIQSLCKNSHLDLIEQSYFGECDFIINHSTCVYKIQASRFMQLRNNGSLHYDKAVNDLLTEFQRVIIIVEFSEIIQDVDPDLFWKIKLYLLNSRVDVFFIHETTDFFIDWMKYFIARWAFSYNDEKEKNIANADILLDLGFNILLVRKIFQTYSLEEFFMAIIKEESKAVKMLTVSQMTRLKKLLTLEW
T1 sequence 2: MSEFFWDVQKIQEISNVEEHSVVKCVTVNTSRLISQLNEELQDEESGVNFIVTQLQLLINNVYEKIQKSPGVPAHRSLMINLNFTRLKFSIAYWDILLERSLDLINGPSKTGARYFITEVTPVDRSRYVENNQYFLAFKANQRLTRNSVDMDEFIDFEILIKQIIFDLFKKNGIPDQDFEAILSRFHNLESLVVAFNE

Zip2(499-704);Spo16 [2] = target: T1, Zip2(499-704);Spo16; assay: EMSA; remark: listed apart in the source
Zip2(499-704);Spo16 [3] = target: T1, Zip2(499-704);Spo16; assay: ITC

B1: 40-bp dsDNA (dsDNA)
DNA 1: CCTTTCGAAGACTCATCACGGAGAGCAGACATCATCTGGC
DNA 2: GCCAGATGATGTCTGCTCTCCGTGATGAGTCTTCGAAAGG
**Q.** For B1, which Kd (Zip2(499-704);Spo16 [1]) is on record?
**A.** Its Kd is 14 µM.

B2: Holliday Junction (HJ) (structured_DNA)
DNA 1: B1 DNA 1
DNA 2: ATATATGATTCTAATAAGATCGTGATGAGTCTTCGAAAGG
DNA 3: GCCAGATGATGTCTGCTCTCGTCGTAATGTAAGTGTATGC
DNA 4: GCATACACTTACATTACGACATCTTATTAGAATCATATAT
**Q.** What does the source list for B2?
**A.** Kd (Zip2(499-704);Spo16 [2]): 5 µM; Kd (Zip2(499-704);Spo16 [3]): ~1 µM

B3: 5'-overhang DNA (mixed)
DNA 1: B1 DNA 1
DNA 2: GCCAGATGATGTCTGCTCTC
**Q.** With B3 as the binder, how does the Kd (Zip2(499-704);Spo16 [1]) read?
**A.** Its Kd is 9 µM.

B4: 3'-overhang DNA (mixed)
DNA 1: B1 DNA 1
DNA 2: CGTGATGAGTCTTCGAAAGG
**Q.** How did the Kd (Zip2(499-704);Spo16 [1]) turn out when B4 was run?
**A.** The Kd was 17 µM.
